Experimental findings from patent US11180770B2, “HPPD variants and methods of use” (BASF Agricultural Solutions Seed US LLC, priority 2017, dated 2021) are described below.

Where a chain is given by its changes, count along the chain named.

B1: 57 (protein)
chain: MADLYENPMGLMGFEFIEFASPTPGTLEPIFEIMGFTKVATHRSKNVHLYRQGEINLILNNEPNSIASYFAAEHGPSVCGMAFRVKDSQKAYNRALELGAQPIHIDTGPMELNLPAIKGIGGAPLYLIDRFGEGSSIYDIDFVYLEGVERNPVGAGLKVIDHLTHNVYRGRMVYWANFYEKLFNFREARYFDIKGEYTGLTSKAMSAPDGMIRIPLNEESSKGAGQIEEFLMQFNGEGIQHVAFLTDDLVKTWDALKKIGMRFMTAPADNYYEMLEGRLPDHGEPVDQLQARGILLDGSSVEGDKRLLLQIFSETLMGPVFFEFIQRKGDDGFGPHSFKVLFEQKERDQVRRGVLTAD
modifications: mutant HPPD polypeptide
B2: 54 (protein)
chain: B1 chain with H336D
modifications: mutant HPPD polypeptide
B3: 46 (protein)
chain: B1 chain with A268G, K345V
modifications: mutant HPPD polypeptide
B4: 53 (protein)
chain: B1 chain with H336D, K345V
modifications: mutant HPPD polypeptide
B5: 55 (protein)
chain: B1 chain with Q344S
modifications: mutant HPPD polypeptide
B6: 48 (protein)
chain: B1 chain with A268G, K345M
modifications: mutant HPPD polypeptide
B7: 49 (protein)
chain: B1 chain with A268P, K345M
modifications: mutant HPPD polypeptide
B8: 50 (protein)
chain: B1 chain with A268S, K345M
modifications: mutant HPPD polypeptide
B9: 56 (protein)
chain: B1 chain with K345I
modifications: mutant HPPD polypeptide
B10: 59 (protein)
chain: B1 chain with N270S, H336D
modifications: mutant HPPD polypeptide
B11: 60 (protein)
chain: B1 chain with M172I, V173D, N270S, H336D, Q344S
modifications: mutant HPPD polypeptide
B12: 52 (protein)
chain: B1 chain with H336D, K345I
modifications: mutant HPPD polypeptide
B13: 47 (protein)
chain: B1 chain with K345M
modifications: mutant HPPD polypeptide
B14: 58 (protein)
chain: B1 chain with N270S, H336D, Q344S, K345I
modifications: mutant HPPD polypeptide
B15: 61 (protein)
chain: B1 chain with N270S, Q344S, K345I
modifications: mutant HPPD polypeptide
B16: 62 (protein)
chain: B1 chain with N270S, Q344S, K345M
modifications: mutant HPPD polypeptide
B17: 51 (protein)
chain: B1 chain with H336D, Q344S
modifications: mutant HPPD polypeptide
B18: SEQ ID NO: 6: mutant PfHPPD: 268A 270N 335P 336D 337S 340V (protein)
chain: B1 chain with H336D, Q344S, K345I
modifications: mutant HPPD polypeptide
notes: mutant PfHPPD: 268A 270N 335P 336D 337S 340V
B19: SEQ ID NO:3 (protein)
chain: B1 chain with N270T, H336D, Q344S, K345I
modifications: mutant HPPD polypeptide
B20: SEQ ID NO: 67: mutant PfHPPD: 213K 268A 270S 315R 335P 336H 337S 340V 344Q 345M (protein)
chain: B1 chain with R213K, N270S, T315R, K345M
modifications: mutant HPPD polypeptide
notes: mutant PfHPPD: 213K 268A 270S 315R 335P 336H 337S 340V 344Q 345M
B21: SEQ ID NO: 24: mutant PfHPPD: 268A 335P 336H 337S 340V (protein)
chain: B1 chain with N270T, Q344S, K345I
modifications: mutant HPPD polypeptide
notes: mutant PfHPPD: 268A 335P 336H 337S 340V
B22: SEQ ID NO:2 (protein)
chain: B1 chain with A268P, N270T, H336W, S337N, K339A, V340Q, Q344S, K345I
modifications: mutant HPPD polypeptide
B23: SEQ ID NO:71 (protein)
chain: B1 chain with P215L, A268P, N270T, H336F, S337N, V340E, Q344S, K345I
modifications: mutant HPPD polypeptide

The first data set has as its system HPPD polypeptides. Briefly: coupled HPPD activity assay: turnover and residual turnover in crude extracts. Conditions: 100 μM Cmpd. 1; signal change with inhibitor divided by signal change without inhibitor. It is filed as biochemical, Pseudomonas fluorescens. As to the method:
The activity of HPPD polypeptides was determined in absence or presence of HPPD inhibitors using the coupled HPPD activity assay (FIG. 1).
For the determination of the residual activity, the apparent kinetic constant (kapp) of the determined substrate conversion was measured as kinetic changes in absorbance (OD) at 320 nm in a coupled assay, in that homogentisate (HGA) formed by HPPD from HPP is directly converted into the well absorbing molecule maleylacetoacetate (MAA) by a second enzyme homogentisate dioxygenase (HGD), applied in excess uniformly in all assays (see FIG. 1). The measurements were performed in 384 micro titer plates (Greiner Bio-One GmbH, Frickenhausen, Germany) by plate readers (Tecan infinite M1000 or M1000PRO, Tecan, Männedorf, Switzerland). The kcat/kM ratio of an enzymatic activity is proportional to the apparent kinetic constant kapp and is proportional to kcat/kM*[E] ([E]=enzyme concentration). […] As both kapp measurements in the presence and absence of inhibitor were performed by use of the identical enzyme sample, crude or purified, and thereby at the same enzyme concentration, the enzyme concentration eliminates from the calculation of residual activity and the ratio of both kapp directly indicates the change of kM due to the inhibition.
The assay solution used for determination of residual activities in raw HPPD polypeptide samples was composed by 200 mM sodium phosphate (Merck, Darmstadt, Germany, pH 7.0), 5 mM MgCl2 (Merck, Darmstadt, Germany), 20 mM ascorbate (Sigma-Aldrich, St. Louis, USA), 1 mM DTT (Sigma-Aldrich, St. Louis, USA), 0.1% Pluronic F-68 (Sigma-Aldrich, St. Louis, USA), 40 μM FeSO4 (Sigma-Aldrich, St. Louis, USA), about 8 mg/ml purified HGD and 500 μM HPP from a 1 M stock solution in DMSO (Sigma-Aldrich, St. Louis, USA) and equilibrated for 20 min on ice. For every HPPD polypeptide sample two assays were performed in quadruplets, whereby 5 μl of HPPD polypeptide sample were mixed firstly with 5 μl buffer (1×BugBuster®; (Merck, Darmstadt, Germany); in 140 mM Tris, pH 7.8, with 1:25000 diluted BNase®; Qiagen, Hilden, Germany)) or 5 μl inhibitor diluted in the same buffer from a 0.1 M stock solution in DMSO (200 μM resulting in 100 μM in the HPPD polypeptide/inhibitor sample) in the reference and inhibition assay, respectively, and subsequently with 10 μl assay solution. The change in absorbance at 320 nm was followed in 1 min intervals for 30 min. The kapp values were calculated as signal slope over time in the early phase of the kinetic reaction, usually for the first 5-10 minutes of the measurements. Additionally and according to the calculated residual activity, the total conversion, i.e. the absolute change in signal, in the 30 min timeframe was monitored as measure of turnover, and a residual turnover was calculated by dividing the change in signal in the presence of inhibitor by the change in signal in the reference sample without inhibitor.
Residual turnover were determined according to Example 3 by measuring total change in signal in the presence and absence of Cmpd. 1 (2-chloro-3-(methylsulfanyl)-N-(1-methyl-1H-tetrazol-5-yl)-4-(trifluoromethyl)benzamide). For each mutant HPPD polypeptide, the total change in signal without HPPD inhibitor herbicides served for normalization of the total change in signal in the presence of the herbicide.
B1: the “Residual turnover [%]” value amounted to 59%.
Same read-out and setting: then B2, with 66%; and B3, with 55%.
Same read-out and setting: then B4, with 54%.
Same read-out and setting: then B5, with 50%.
For the molecule B6, the “Residual turnover [%]” value came to 52%.
The same measure, in the same setting: then B7, with 33%; and B8, with 44%.
Regarding B9, the “Residual turnover [%]” value is 57%.
On the same count and under the same terms, then B10, with 56%; and B11, with 45%.
B12: the “Residual turnover [%]” value came out at 47%.
For B13, the “Residual turnover [%]” value came out at 53%.
Take B14: the “Residual turnover [%]” value is recorded as 45%.
For the molecule B15, the “Residual turnover [%]” value is listed as 40%.
For B16, the “Residual turnover [%]” value turned out to be 37%.
As for B17, the “Residual turnover [%]” value came to 56%.

Staying with this data set, now noted: Cmpd. 1; comparison with the reference or parent polypeptide.
For the molecule B18, the “turnover / residual turnover in the presence of Cmpd. 1 compared with a reference HPPD polypeptide, in words” value is “increase in the absolute turnover and absolute residual turnover”.
B19: the “turnover / residual turnover in the presence of Cmpd. 1 compared with a reference HPPD polypeptide, in words” value is “improvement regarding residual turnovers”.
In the case of B20, the “turnover / residual turnover in the presence of Cmpd. 1 compared with a reference HPPD polypeptide, in words” value was “increase significantly the turnover and the residual turnover”.
With B21, the “turnover / residual turnover in the presence of Cmpd. 1 compared with a reference HPPD polypeptide, in words” value is recorded as “increase in the residual turnover”.

Still in this data set, the particulars now being: absence of Cmpd. 1; high substrate concentration; kinetic changes in absorbance (OD) at 320 nm, 30 min.
In the case of B1, the Turnover was 0.167.
Same read-out and setting: in the case of B2 it was 0.089; in that of B3, 0.179; in that of B4, 0.199.
The same measure, in the same setting: then B5, with 0.189.
With B6, the Turnover is 0.225.
On the same count and under the same terms, in the case of B7 it was 0.316.
B8 had a Turnover of 0.315.
The molecule B9 displayed a Turnover of 0.152.
B10 returned a Turnover of 0.131.
Take B11: the Turnover turned out to be 0.103.
B12 came in with a Turnover of 0.189.
Molecule B13 returned a Turnover of 0.314.
In the case of B14, the Turnover worked out at 0.144.
The molecule B15 yielded a Turnover of 0.229.
Turning to B16, the Turnover is recorded as 0.308.
The molecule B17 displayed a Turnover of 0.131.

The data set is the same for the next values; noted with them: presence of 100 μM Cmpd. 1; high substrate concentration; changes in absorbance (OD) at 320 nm.
For B22, the Residual turnover is on record as 0.026.
Take B23: the Residual turnover was 0.022.
In the case of B1, the Residual turnover came out at 0.099.
As to B2, the Residual turnover stood at 0.059.
Regarding B3, the Residual turnover is listed as 0.098.
B4: the Residual turnover was found to be 0.107.
On to B5, for which the Residual turnover worked out at 0.095.
As for B6, the Residual turnover was 0.117.
For the molecule B7, the Residual turnover came to 0.103.
On to B8, for which the Residual turnover was determined as 0.138.
For the molecule B9, the Residual turnover came out at 0.086.
Same read-out and setting: in the case of B10 it was 0.074; in that of B11, 0.046; in that of B12, 0.088.
As for B13, the Residual turnover worked out at 0.166.
As for B14, the Residual turnover was determined as 0.065.
For the molecule B15, the Residual turnover was 0.091.
Take B16: the Residual turnover was 0.115.
With B17, the Residual turnover is on record as 0.074.
